From the DeepSol protein solubility set

Experiment: soluble on expression in E. coli; label from the status in PepcDB or PDB records

Row | Sequence | soluble on expression in E. coli
1 | MYQVIKMYGDWEPWWFIDGWQDDIIDEQQFSDWQEALDYFNQEWQRMKAIFPSYHSQKNLLATFWEKEDKRWCEDCDEDLQQFHSLLLLKNKDIVPSNNYIPEFEQRNDSPQVAYLCKLNLLEHHHHHH | soluble
2 | PIVGRIIHIENQQLNEYTGNYSSFENQRAQKMMLQQAMFEKQQKQMSHMQSYIDRFRYKASKARQAQSRIKALERMEKVLPAQFDNPFSFEFRQPAALPNPIMMMDDVSAGYGDNLILEKIRLNLVP | not soluble
3 | MQLKRVAEAKLPTPLGDFLMVGFEELATGHDHAALVFGDISGKTPVLARVHSECLTGDALFSLRCDCGFQLEAALTHIAEEGRGILIYHRQEGRNIGLLNKIRAYALQDQGYDTVEANHQLGFAADERDFTLCADMFKLLGVDEVRLLTNNPKKVEILTEAGINIVERVPLIVGRNPNNEHYLDTKAAKMGHLLSKLEHHHHHH | soluble
4 | MGSDKIHHHHHHMLRIFQGRPAVTIAAVLVAASVAGCAGKAKKPTLVYEERPVELLYSTGADRLDRGNWNEAVDYFREVERQHPYSEWSRRSILMTGYAHYMGNQYAEAIGDADRFISLYPGNPSAQYAFYLKAICYFEQIVDVNRDQAATEQALAALRDVVQRYPNTEYATDARLKIDMVNDQLAGKEMAIGRWYLKNGQTLAAIGRFKAVIERHQTTSHTPEALFRLVEAYLTIGLNEEAKRNGAVLGYNFPGDRWYVDAYRLLNDNGLRPAVEPLKAGAKRNALERILSKDKEATLAPPGERKAKKGLLGPLGM | not soluble
5 | GMKSSQPFIYEAHAARVVFGAGSSSQVAAEVERLGAKRALVLCTPNQQAEAERIADLLGPLSAGVYAGAVMHVPIESARDATARAREAGADCAVAVGGGSTTGLGKAIALETGMPIVAIPTTYAGSEVTPVYGLTEAGTKRTGRDPRVLPRTVIYDPALTVGLPRGLSVTSALNAIAHAAEGLYARDANPVMSLMAEEGIRALAAGIPAVFNDPADLDARSQCLYGAWLCGTVLGGVGMALHHKLCHTLGGSFNLPHAETHTIVLPHALAYNAAAVPEAMARIRRATGAGEQSAAATLFDLAQRHGAPVALRDIGMREEDLDRAADIALASPYWNPRPIEREPIRALLQAAYEGVRPD | soluble
6 | MTGNKIHNPLDRNHSELRDKKVSLNDGDPFTIALFGVDSDADRKKKGGGERSDSIMILSINPKTKKTEIVSIPRDTRAEIVGRGTTEKIAHAYAYGGPNMAVKSLEKLMNVPIDHYATIDMDGLHNMIDSIGGVDVVSNDTFTVDGVRFTKGQQTHVNGDQALKFIRSRKEEGAGGDFGRQQRQQIVLEAMANKIASPSSITHFNSLMNEIQNNVKTDLTLGDLNTIRSNYKDANDTINKHQLSGQGGIQSDGLYYFIPSEQSKAESTKLLKDNLELEHHHHHH | soluble
7 | MLQITKSLSIALTEIEMTALRSQGAGGQNVNKVASAIHLRFDIGASSLPDVYKERLLNLNDQRITKDGIVVIKAQSHRTQEQNREEALKRLQGLISSVITLPKPRRPTKPTRSSQRKRLDAKTKRSAVKALRKSIDELEHHHHHH | not soluble
8 | MGSDKIHHHHHHMPTPHLDTALSGPILDLERCILNAMPSIEQWLRNEWQTHAAPFYCSVDLRNSGFKLAPVDTNLFPGGFNNLNREFMPLCVQAMMAAIDKICTGARSVLLIPESHTRNIFYLQNLAALHAIMRHAGIHVRIGTLLPEITAPTALDLPGGNKLTLEPIQRKGNRVVLEDFDPCVVLLNNDLSTGTPAVLQNLEQTVIPPLHAGWTSRRKSHHFTAYDNVSQQFASLIGIDPWLINPYFASCGKINFREKKGEDCVANTVDEILHQIREKYAEYGVRKDPFVIVKADAGTYGMGIMTVKDGAQVRTLSRKQRNKMAVVKEGLEVTDIMVQEGVYTFENVDDAVAEPVIYMIDRYVVGGFYRVHTERGVDENLNAPGMHFVPLAFEDTCLLPDREAQPGCSANRFYAYGVIARLALLAAAQELEKSEARIEAIMA | not soluble
9 | MAIRRLRTIFVSLLLGLAASATQAADRSDRNVTAKLEGRFEWDFALFDNDTRGTPNRSNNEIRRFWLDVTGKVFAFDYTIEGNFTNLQDKFKGKSIEMGDVYLRHDFGNTGTLTLGQFKQHFSLDDRTSPDYGQFLERSGGANTLAPEYHKGVSWKATHQNTTWWVSAYSLDSISLSNVNGRGLGGRGTWSPDTPEGDVLHLGLSLAHQRYDHPGSDGMTALSIRPLPAGHLSDNSGITLAHFANGRDTKVNRWALEYAQVRGPLSWQSEYIGGAFNDGMQRATVQSAYGFVSWFVTGESRTYDRKTGRFTRIKTLHNPRGALELALRYDRMWGNQHHNNQPNFLNASTASCTLGVNWYIKPNLRLMLNLIDSRNRDRLAGTVLDHTRALTGRLHYDF | not soluble
10 | MSLGFKEYYRVFPTYTDINSQEYRSRIETLEPLLMKYMKKRGKVLDLACGVGGFSFLLEDYGFEVVGVDISEDMIRKAREYAKSRESNVEFIVGDARKLSFEDKTFDYVIFIDSIVHFEPLELNQVFKEVRRVLKPSGKFIMYFTDLRELLPRLKESLVVGQKYWISKVIPDQEERTVVIEFKSEQDSFRVRFNVWGKTGVELLAKLYFTKEAEEKVGNYSYLTVYNPKEGHHHHHH | soluble
11 | MAHHHHHHMGKVKKQANHAIKKILMKEKSLAMKKKREAESYHETPESNTTTQATKDYAAVLFRKALVTQAAPTRTAHFLSYNTALGPPYRIWLDTNFINFSMQNKIDIVQGLMDCLLAKVIPCICDCVFAELEKLGKKFRIALKLARDKRFERLTCDSKYADDCVVRTVTQHPIYIVATCDQELKRRLRKVPGVPIMYIAKHRYTIERLPEAYGAPE | not soluble
12 | ADVAIVGGGFVGLWTAITLKQLEPDARVLLLEQDVCGGGASGRNGGFVMSWWPKIGTLLGFCSEAQARFLGESAERAIQELGEFCARHDIDAHFQQKGWLWTATTAHHLDAWNDTLAACERLGVSPFERLDASEVARRTGSPVHLAGVFERSNATVQPALLVQGMRRVALALGVEIHERCGVSQIVPGQPAQLLSAGARVQAKAVVLATNAWSAALPRLSRLIVPVNSSIAVTEAIPQRLERIGWTGGEAITDSQLMVDYYRTTRDGRIAFGKGTGALSYGSRIGRVFDVDRESLALTEADFRRTYPSLGDIPLVDGWSGPIDRTYDSLPVFGRLHENIHYGIGWSGNGVGPSRLGGRILASLALGRDDPWSR | not soluble
13 | MAWLNPFWSSPKAYVRPPKRGLAPELWASRIPFTHLENFYEVFRALWENRDNLPYAWRILKDGVCDGCALGTSGLEDWTLHGVHLCNVRLRLLSLNTLPPLDPKVLKDVEALKGRKSRELRRLGRLPYPMLRRKGERGFRRVSWDEAMGLATEYLRRHLPEGAFFYLTSRGVPNETYYVVQKAVRALGCNHVDNAARICHSPSTVVLKEALGVAATTCSYTDLIGTDLVVFLGSNVANNQPVMMKYLYHAKKAGTKVAVVNPYREPGMERYFVPSDLESALFGTRIADRFFQILPGGDIAFLHGAAKWMLEEGWVDPGFIRAHTAGFEAYKALLEAIPFAELEKAAGVSREEMRAFAEMVGRAERAVFVWGMGITQHTHGEDNVRAIVNLALLKGFVGREGCGLMPIRGHSGVQGGAEMGAYATAFPGGLPVNPENARRLAELWGFPVPDRPGLTTPEALDRALEGRLGVLWAIGGDFREVMPDPEAVEEALRRVPLRVHQDIVLSSQMLLEPGECVLLLPATTRYEVPGGVTETSTERRVIFSPEIPGPRPPEARPEWEVFQELVHRLRPELKDRFRFASTAEIREEIARVIPLYEGIQRFKAKGDQFQYGGRRLCEGWRFPTPDGKAHFRPVPLPQKEVPEGAFRVVTRRGKQFNSIVHEDQDPLTGAFRDAVYMNPKDAARLGLKPGDPVVLENAFGRYAGRVYLAEVKEGTLEVHWPEGNVLVDPKARSPLAHIPAYKEILAHLRRGEAEAPSPLRP | soluble
14 | MMISIFSLLASTAILVFANGQSNVKLEFVQAMWRHGERASQVDQYPIYEKDWIYGGGGLGELTAIGMGEMNELGWLIRKRYVTKLKFLTPKYASREVYFRSTNFNRTIISAQSLLYGLFPPSLYDVKNVDYPYSPLTWFPGFTFVPVHVDGPDQCAASQNCPCTRYDLLQGQMLTLPEVLPKYTQVVLLNRRVGGYYNMTSGLDSFTTYPDTWKCQRAYFNRTMYAKLPWYNEELYYQAQVTYAPVKGFLEGNFENPAVTSSGLDVGLEIKKVRSGVIINEVFNRANEKLNCAELGQNCTSYLNKLKFYGYSIHDNNVYGVLVALGIPQIANTLDGWPAYAAGIFMEFHRNTSTNERFFKVLYREGDDTPISDVTSQLPICNGATLCPLGALQTLAETLKPLPDITTLCKTPL | not soluble
15 | MPLTLTDRYRGSLLGLACGDALGTSVEFKPRGSFPPVTDLLGGGPFNLKAGQWTDDTSMALCLGESLLRKDGFDPADQMGRYLNWWQWGYLSATGECFDIGMTVRQALADYQEHGQPLAGSSDPQTAGNGSLMRLAPVVLFHYPDLAQVREFAGASSRTTHGAAEAIECCQLLAGLIAKALDGASKQQLQRLDAQGFRESKVAALAQGNYLDKTRDQIRGNGYCVDSLEAALWCFQHSDSYAEAVLAAANLGDDADTTAAIVGQLAGAFYGAQGIPPHWLAKLHMGEEIQAMADDLLAAARRRAPARPLHGSCLCKAVQYRVDRLDMPIGHCHCQTCRKAHAAAFASTAGVMREHFQWTQGQERLSTYESSPGKLRHFCSVCGSHLLAERPGQPHVILRVATLDDDPGQTPQVHIWTSHDVPWLADEALQRWPEWQPSRGLEHHHHHH | not soluble
16 | MAYEEHFQQTSEAKYDCLLFDIDDTLYPLSSGLAMEVKKNIQEYMVQKLGIEEDKVQELCLSLYKIYGTTMAGLKAVGYDFDYDDFHRFVHGRLPYSTLKPDPILRNIILSLPIRKVVFTNADKAHAAKIIARLGLEGCFEKIISFETLNPITKTESPVDTKTREIFDIISYMANPDSSIELPKTSVVCKPSEGAFEQVFKMANINPKKTLFFDDSIRNIQTGKRVGLHTVWVGTSHREEGVDIALEHIHNIREALPQLWDAVDDKAKEIRTRQKVAIETIA | not soluble
17 | MTDIAQLLGKDADSLLQHRCMTIPSDQLYLPGKDYVDRVMIDNNRPPAVLRNMQTLYNTGRLAGTGYLSILPVDQGVEHSAGASFAANPRYFDPKNIVELAIEAGCNCVASTYGVLASVSRRYAHRIPFLVKLNHNETLSYPTEYDQTLYASVEQAFNMGAVAVGATIYFGSEQSRRQIEEISAAFERAHELGMVTVLWAYLRNSSFKKDGVDYHVSADLTGQANHLAATIGADIVKQKMAENNGGYKAVNFGYTDDRVYSKLTSDNPIDLVRYQLANCYMGRAGLINSGGADGGDTDLGDAVRTAVINKRAGGMGLILGRKAFKKSMADGVKLINAVQDVYLDSKVTIA | not soluble
18 | MYCTIDDLLGQIDKSKLIELTNDRADPAVDENGQEIIHEGNANSAIEAATAVVNTYIAMRYPVPLSPVPKIVSKLTADIAIYNLFTRHYNDEDNVFVRRYRDAIRLLEKIAADEVKLTANESGIRTYARRKVFGEDFRRMYD | not soluble
19 | MRGSTRDQNGTWEMESNENFEGYMKALDIDFATRKIAVRLTQTKVIDQDGDNFKTKTTSTFRNYDVDFTVGVEFDEYTKSLDNRHVKALVTWEGDVLVCVQKGEKENRGWKQWIEGDKLYLELTCGDQVCRQVFKKKLVPR | soluble
20 | MSLSNDGRRQIIESAGRSMAEGYAETLRAIDPTLAINLFSPADEADRLPAPLSSYDGVVVTGSSLHVYRTEPAVTRQIDFLREVFDAGVPVFGSCWGLQLGVVAAGGTVIPNPKRREVPFARSVTLTAAGKTHQMHQSRPAAFDALAIHLDVVSVLPPDSVVTAFNDMAAVQAVEFRSGRSLFWGVQYHPEFELPYMASILRRNASSLVAEAAFSSEGELVEMVDAMDSHGNDGDRVRHPSLLPDDVLDRHTRTIEIANWLKMLSSGEGHHHHHH | not soluble
21 | MMMDLNIRRVVLDVDKGLNRPTLVELAAAIEKVQGVEAVNIIVTEMDMETMGTNITVEGTNINYDELIETIENTGSAIHSVDEIAVGKRLIENVRR | not soluble
